For 6 substances, Kd results are on record in article doi:10.1101/2024.01.08.574586.

The target of this assay is recombinant biotinylated HIP1 protein (UniProt O00291). The assay can be described thus: SPR.
Chain of UniProt O00291 (O00291 whole entry): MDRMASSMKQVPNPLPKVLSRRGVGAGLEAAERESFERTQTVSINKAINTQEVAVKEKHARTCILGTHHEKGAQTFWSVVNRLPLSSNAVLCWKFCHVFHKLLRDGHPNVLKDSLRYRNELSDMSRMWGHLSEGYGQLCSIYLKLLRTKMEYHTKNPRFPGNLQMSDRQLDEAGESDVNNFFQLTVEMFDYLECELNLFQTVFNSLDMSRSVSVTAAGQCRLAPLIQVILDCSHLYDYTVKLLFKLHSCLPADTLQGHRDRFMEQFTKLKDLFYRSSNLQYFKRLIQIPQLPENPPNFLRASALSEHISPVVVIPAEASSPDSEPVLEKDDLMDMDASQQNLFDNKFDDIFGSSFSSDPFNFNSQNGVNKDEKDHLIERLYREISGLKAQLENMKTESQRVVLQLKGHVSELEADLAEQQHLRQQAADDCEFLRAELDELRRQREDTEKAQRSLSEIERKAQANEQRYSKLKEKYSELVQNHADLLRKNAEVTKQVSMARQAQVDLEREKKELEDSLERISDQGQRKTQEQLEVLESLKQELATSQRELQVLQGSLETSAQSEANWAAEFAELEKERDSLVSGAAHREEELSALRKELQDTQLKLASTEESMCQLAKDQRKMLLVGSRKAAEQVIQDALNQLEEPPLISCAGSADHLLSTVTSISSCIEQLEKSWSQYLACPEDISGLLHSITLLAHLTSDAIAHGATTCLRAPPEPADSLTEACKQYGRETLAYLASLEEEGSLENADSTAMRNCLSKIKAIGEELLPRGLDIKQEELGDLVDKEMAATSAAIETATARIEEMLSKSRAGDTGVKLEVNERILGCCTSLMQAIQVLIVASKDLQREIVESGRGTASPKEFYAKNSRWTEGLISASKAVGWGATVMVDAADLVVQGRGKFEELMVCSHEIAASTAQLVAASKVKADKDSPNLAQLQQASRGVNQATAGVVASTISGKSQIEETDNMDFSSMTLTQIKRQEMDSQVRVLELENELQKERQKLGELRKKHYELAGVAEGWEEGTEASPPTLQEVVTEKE

For the substance “K63-linked Ub3 (SPR analyte) (from UniProt P0CG48)”, the Kd is 1.55 µM.
The result for “K48/K63-linked branched Ub3 (SPR analyte) (from UniProt P0CG48)” reads 0.07 µM; that for “K48-linked Ub3 (SPR analyte) (from UniProt P0CG48)”, 66.2 µM; that for “K63-linked Ub2 (SPR analyte) (from UniProt P0CG48)”, 1.89 µM.
Turning to “K48-linked Ub2 (SPR analyte) (from UniProt P0CG48)”, the Kd was determined as 137 µM.
The same measure for “mono Ub (SPR analyte) (from UniProt P0CG48 1-76) (natural protein)”: 197 µM.

As usually defined, the Kd is the equilibrium constant for the complex coming apart.
